Source: publication PMC3506534, “LL-37 Induces Polymerization and Bundling of Actin and Affects Actin Structure” (PLoS ONE, 2012)

Molecular target: rabbit skeletal muscle α-actin (rabbit, UniProt P68135 1-377)
Assay: SPR; BIACORE 3000; actin (10 µg/ml) amine-coupled to a CM5 chip, 1500-1800 RU; running buffer 10 mM HEPES pH 7.4, 150 mM NaCl, 0.005% tween 20; 25°C, 40 µl/min; LL-37 0-500 nM, 1:1 Langmuir model; sLL-37 0-2500 nM, steady state affinity model
Details: both partners purified

B1: scrambled LL-37 (peptide)
peptide: GLKLRFEFSKIKGEFLKTPEVRFRDIKLKDNRISVQR
notes: scrambled order of the residues of LL-37; same net number of positive charges; also called sLL-37; source: bought: Genemed Synthesis Inc; purified by HPLC, purity greater than 90%
Question: With B1 as the binder, how does the Kd read?
Answer: Its Kd is 138 µM.
